Values of other authors in PMC8439649.

Biological target: mTORC1 (Homo sapiens) (UniProt P42345)

In the case of DEPTOR PDZ (from UniProt Q8TB45), the Kd is listed as 7 µM.
